B1: Serine/arginine-rich splicing factor 2 (Homo sapiens), Q01130 (parent)
chain: MSYGRPPPDVEGMTSLKVDNLTYRTSPDTLRRVFEKYGRVGDVYIPRDRYTKESRGFAFVRFHDKRDAEDAMDAMDGAVLDGRELRVQMARYGRPPDSHHSRRGPPPRRYGGGGYGRRSRSPRRRRRSRSRSRSRSRSRSRSRYSRSKSRSRTRSRSRSTSKSRSARRSKSKSSSVSRSRSRSRSRSRSRSPPPVSKRESKSRSRSKSPPKSPEEEGAVSS

Variants of: B1
Conditions: with kat5_human KAT5, Q92993
Chain of kat5_human KAT5, Q92993 (Q92993 whole entry, looked up): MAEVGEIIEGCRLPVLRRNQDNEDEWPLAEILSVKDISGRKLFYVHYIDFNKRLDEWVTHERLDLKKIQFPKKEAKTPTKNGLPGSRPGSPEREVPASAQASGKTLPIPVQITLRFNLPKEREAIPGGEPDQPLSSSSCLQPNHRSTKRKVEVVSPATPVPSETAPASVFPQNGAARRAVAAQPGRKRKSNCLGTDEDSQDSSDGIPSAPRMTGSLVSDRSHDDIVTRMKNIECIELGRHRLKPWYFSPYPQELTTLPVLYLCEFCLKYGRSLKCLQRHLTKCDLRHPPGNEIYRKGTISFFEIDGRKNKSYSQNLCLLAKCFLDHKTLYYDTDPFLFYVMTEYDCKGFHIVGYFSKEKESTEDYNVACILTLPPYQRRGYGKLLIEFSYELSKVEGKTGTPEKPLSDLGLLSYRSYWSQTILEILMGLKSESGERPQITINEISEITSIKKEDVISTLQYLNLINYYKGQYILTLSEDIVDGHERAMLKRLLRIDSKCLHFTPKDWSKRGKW

| effect of a mutation on the interaction | Variant |
| --- | --- |
| disrupting interaction | K52R |
